# Measurements from PMC11917135.
# Molecular target: M53 protein (Streptococcus pyogenes) (UniProt P49054)
# Assay: SPR; screen: 200 nM Plg injected for 2100 s at 10 μL/min over immobilised Mrp or control M protein, 900 s dissociation; no Fg
# UniProt P49054, sequence (P49054 30-384): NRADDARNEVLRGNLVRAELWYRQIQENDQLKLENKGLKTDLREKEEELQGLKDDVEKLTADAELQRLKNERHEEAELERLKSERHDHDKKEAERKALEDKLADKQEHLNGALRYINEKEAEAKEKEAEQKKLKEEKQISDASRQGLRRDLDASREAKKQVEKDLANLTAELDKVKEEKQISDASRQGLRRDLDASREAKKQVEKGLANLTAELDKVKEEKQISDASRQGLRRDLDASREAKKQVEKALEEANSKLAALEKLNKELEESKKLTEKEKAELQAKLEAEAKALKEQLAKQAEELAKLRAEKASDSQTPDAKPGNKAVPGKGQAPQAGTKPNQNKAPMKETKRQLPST
substance,measurement,value
human Glu-plasminogen (natural protein),Kd,< 50 nM
